# Experimental data published in patent US20040086945A1, “Hairless protein-interacting partner complexes and methods thereto” (The Procter & Gamble Company, priority 2002, published 2004).
# T1: mouse HRt (hairless protein aa 490-1182) (Mus musculus, UniProt Q61645)
# T1 construct: HR cDNA corresponding to the C-terminal half of HR protein (aa residues 490 to 1182, hereinafter HRt); expressed in transfected cells; host or cells: Saccharomyces cerevisiae PJ69-2A transformed with BD-HRt plasmid, mated with Y187 carrying the human brain cDNA library in pACT2
# T1 sequence (Q61645 490-1182): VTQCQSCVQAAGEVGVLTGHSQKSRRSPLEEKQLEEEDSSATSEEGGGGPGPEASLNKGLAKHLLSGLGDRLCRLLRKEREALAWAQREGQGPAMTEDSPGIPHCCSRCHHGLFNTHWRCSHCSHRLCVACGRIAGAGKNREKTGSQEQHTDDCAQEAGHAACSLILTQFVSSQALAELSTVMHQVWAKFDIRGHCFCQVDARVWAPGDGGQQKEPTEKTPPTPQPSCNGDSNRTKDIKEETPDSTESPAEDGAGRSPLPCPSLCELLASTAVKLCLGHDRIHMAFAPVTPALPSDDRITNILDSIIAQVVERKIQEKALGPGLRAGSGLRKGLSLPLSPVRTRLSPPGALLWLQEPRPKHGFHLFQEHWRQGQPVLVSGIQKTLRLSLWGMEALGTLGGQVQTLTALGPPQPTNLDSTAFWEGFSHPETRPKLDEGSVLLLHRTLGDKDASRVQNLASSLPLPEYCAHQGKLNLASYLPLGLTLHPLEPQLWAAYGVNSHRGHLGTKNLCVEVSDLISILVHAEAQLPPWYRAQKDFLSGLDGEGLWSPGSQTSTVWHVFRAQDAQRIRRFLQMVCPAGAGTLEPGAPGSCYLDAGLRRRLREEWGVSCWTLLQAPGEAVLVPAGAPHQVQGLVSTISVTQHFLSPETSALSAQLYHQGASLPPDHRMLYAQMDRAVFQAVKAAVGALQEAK
# B1: Human sequence from clone RP4-753, chromosome 21q: human HRt interacting partner, GenBank AL031676, SEQ ID NO:12/13 (protein, listed as Homo sapiens)
# chain: TRSSFRSEATPSEPVLVSVHLSVLPARVQPRGMDRARVAVAAGSLAPPVLPPPIQRLRGCSMFYVFLNEDPSDGSSPIPDSGSPSGPRAAPEHPARLPLT
# B2: Human monocyte antigen CD14: human HRt interacting partner, GenBank M86511, SEQ ID NO:14/15 (protein, listed as Homo sapiens)
# chain: KRINLISQTKRPDRNMSLSRACPCWNGLLTTIKNLELLLEIVTDKSQEGSQFVKGFGGIGGILRYRVDFQGMEYQGGDDEFFDLDDY
# B3: Human vesicle-associated membrane protein 2: human HRt interacting partner, GenBank BC002737, SEQ ID NO:22/23 (protein, listed as Homo sapiens)
# chain: QGEGKGDGTGSYREGQGPRQQGGHQEAAAAATVCVASLPPPQHPRQLGLAPLPSLHCTLSLKINFQPCLLSTWWVVGMQFGICSTPST
# B4: Human small intestine cDNA to mRNA clone HSI10987: human HRt interacting partner, GenBank AK026339, SEQ ID NO:24/25 (protein, listed as Homo sapiens)
# chain: CPGRSQGPHCWDAGCSGAPQAQVPSVFSFDFAAVLVLLLYPQELTWTQILGPPWSASSSAFGSGKNSSRTFYSQRQSLSFLCPICISSRRDPP
# B5: Human aldolase A: human HRt interacting partner, GenBank M11560, SEQ ID NO:26/27 (protein, listed as Homo sapiens)
# chain: VSKAVEHINKTIAPALVSKKLNVTEQEKIDKLMIEMDGTENKSKFGANAILGVSLAVCKAGAVEKGVPLYRHIADLAGNSEVILPVPAFNVINGGFSCCNKLAMHEVHDPPSRCSKLQGSLRIGTE
# B6: Human CGI-106 protein: human HRt interacting partner, GenBank AF151864, SEQ ID NO:28/29 (protein, listed as Homo sapiens)
# chain: DEDTEGFGVPRHDPLPDPLKVPPPLPDPSSICMVDPEMLPPKTARQTENVSRTRKPLARPNSRAAAPKATPVAAAKTKGLAGGDRASRPLSARSEPSEKGGRAPLSRKSSTPKTATRGPSGSASSRPGVSATPPKSPVYLDLAYLPSGSSAHLVDEEFFQRVRALCYVISGQDQRKEEGMRAVLDALLASKQHWDRDLQVTLIPTFDSVAMHTWYAETHAR
# Target: T1, mouse HRt (hairless protein aa 490-1182)
# Experiment: Yeast two-hybrid screen of BD-HRt against human brain cDNA library in AD vector, lacZ coloration on QDO-Xgal plates
# Assay type: cell-based
# Conditions: BD-HRt(mouse) x human brain cDNA library in AD-vector
# Excerpt: The present example provides for Hairless Protein (HR) interacting partners (HR-IP) using the yeast two-hybrid technology. […] Yeast cells expressing BD-HRt are mated with yeast cells pretransformed with human brain cDNA library in the activation domain (AD) vector.
# Cloning of HRt into GAL4 binding domain (BD) yeast two-hybrid (Y2H) vector: The HRt insert from pET32a-HRt is excised as an Eco RI-Xho I fragment (there is a unique Xho I site just adjacent to HRt insert) and inserted at the Eco RI-Sal I sites of Y2H-BD vector pGBKT7 (Catalog No. K1612-B; a component of Matchmaker two-hybrid System 3 (Catalog No. K1612-1) BD Biosciences Clontech, Palo Alto, Calif.) to obtain pGBKT7-HRt in which HRt is fused in-frame to GAL 4 DNA BD (this plasmid is also designated BD-HRt).
# Pretransformed human brain […] cDNA Library Screen for HRt interaction partners: Pretransformed human brain […] high-complexity GAL4 cDNA library that has already been amplified and introduced into yeast strain Y187 (MATα) is used to screen for HRt interacting proteins. […] The library host strain Y187 provides a third reporter gene (lacZ) for optional quantification of signal strength. The protocol as described in Clontech user manual (PT3183-1) is used. Briefly, the library is mixed with PJ69-2A strain that has been transformed with the BD-HRt plasmid in YPD medium containing adenine hemisulfate (0.004%) and kanamycin (0.005%) and incubated for 20-24 h at 30° C. The next day, the mating mixture is plated on Leu, Trp, His TDO that selects for two-hybrid interactions, and then the positive clones are screened for growth on Leu, Trp, His, Ade QDO, which is a more stringent condition for interaction. Colonies that grew well on QDO are also screened for lacZ expression by streaking on QDO-Xgal plates. Based on a visual assessment of colonies for the intensity of blue color, the clones are classified into high (H), medium (M), low (L) or very low (VL) categories.
# The positive clones are expected to contain an AD-IP (interacting partner) that interacts with BD-HRt. To characterize IP, the sequence of IP is determined and matched to the human genome database. For this purpose, total DNA is isolated from the positive clones and PCR amplified with […] AD LD (long distance)-insert screening amplimers (Catalog No.9103-1; BD Biosciences Clontech, PaloAlto, Calif.). Reaction is conducted in 50 μl volume for 35 cycles using the conditions recommended with the Advantage2 PCR kit (Catalog No. K1910-1; BD Biosciences Clontech, PaloAlto, Calif.).
row,Molecule,XGAL (rate and intensity of coloration of colonies on Xgal)
1,"HUMFGF1A Human fibroblast growth factor (FGF) receptor-1 mRNA: interacting partner nucleic acid, homology in a 3'-untranslated region, GenBank M34641, SEQ ID NO:92",VL (VL = Very Low blue in 10 days)
2,"Human C11 protein: human HRt interacting partner, GenBank X81625, SEQ ID NO:20/21",M (M = Medium blue in 3-5 days)
3,"Human Sphingolipid activator protein: human HRt interacting partner, GenBank M60255, SEQ ID NO:16/17 (PLPPPCLLPLPRPPLLPRLGRVVPLHPLQTSPVTGDCSRPRPRWMRWWTS; listed as Homo sapiens)",M (M = Medium blue in 3-5 days)
4,"Human Thy-1 glycoprotein: human HRt interacting partner, GenBank AF261093, SEQ ID NO:66/67",L (L = Low blue in 5-7 days)
5,"Human ankyrin repeat containing protein ASB-2: human HRt interacting partner, GenBank AF159164, SEQ ID NO:38/39",M (M = Medium blue in 3-5 days)
6,"Human cDNA FLJ20456 fis clone KAT05827: human HRt interacting partner, GenBank AK000463, SEQ ID NO:74/75",L/VL
7,"Human cDNA: FLJ23187 fis, clone: LNG11989: human HRt interacting partner, GenBank AK026840, SEQ ID NO:78/79",L (L = Low blue in 5-7 days)
8,"Human genomic region containing hypervariable mini satellites Chromosome 10[10q26.3]: human HRt interacting partner, GenBank AL096810, SEQ ID NO:64/65 (NMKNRMMWRVMTLEKTRVNIIQTHLLCLLLIQMK; listed as Homo sapiens)",L (L = Low blue in 5-7 days)
9,"Human hypothetical protein: human HRt interacting partner, GenBank BC006358, SEQ ID NO:34/35",M (M = Medium blue in 3-5 days)
10,"Human mRNA for C11ORF25 gene: interacting partner nucleic acid, homology in a 3'-untranslated region, GenBank AJ300461, SEQ ID NO:94 (DNA CTATTCGATGATGAAGATACCCCACCAAACCCA; listed as DNA, chemistry not fully specified; the letters are possibly those of the target site)",VL (VL = Very Low blue in 10 days)
11,"Human pre-B cell colony enhancing factor (PBEF): human HRt interacting partner, GenBank U02020, SEQ ID NO:55",L (L = Low blue in 5-7 days)
12,"Human synuclein-beta: human HRt interacting partner, GenBank BC002902, SEQ ID NO:18/19 (FCPTPTATPCRNSPGVTSGGPRPCWARLMEVPQERTRTAWCSTPRLPSRSRSSASVMM; listed as Homo sapiens)",M (M = Medium blue in 3-5 days)
13,"Human tyrosine phosphatase type 1VA, member 2: human HRt interacting partner, GenBank U14603, SEQ ID NO:51/52",L (L = Low blue in 5-7 days)
14,"Human ubiquitin: human HRt interacting partner, GenBank AR075562, SEQ ID NO:70/71 (EKFAPKKQGDGGKDLPTEAKKRAAEFCRGALC; listed as Homo sapiens)",L/VL
15,"Human ubiquitous receptor UR: human HRt interacting partner, GenBank E11456, SEQ ID NO:1/2",H/M
16,B1,H (H = Intense blue within 2-3 days)
17,B2,H (H = Intense blue within 2-3 days)
18,B3,M (M = Medium blue in 3-5 days)
19,B4,M (M = Medium blue in 3-5 days)
20,B5,M (M = Medium blue in 3-5 days)
21,B6,M (M = Medium blue in 3-5 days)
